Consider 3 molecules from publication PMC8156467, “Disruption of YY1-EZH2 Interaction Using Synthetic Peptides Inhibits Breast Cancer Development” (Cancers, 2021).

This test addresses T1, His×6-YY1 (UniProt P25490 1-414).
T1 construct: Yin Yang 1 (YY1); The construct and its host are not described in the methods; also called purified His×6-YY1
The test can be described thus: pull-down; GST-EZH2 fragments from E. coli lysates held on Glutathione-Sepharose beads, washed, 1.0 µg of purified His×6-YY1 added for 4 h at 4 °C; 20 mM Tris-HCl pH 7.5, 150 mM NaCl, 0.1% NP-40. As to conditions: both partners purified.

T1 sequence (P25490 whole entry): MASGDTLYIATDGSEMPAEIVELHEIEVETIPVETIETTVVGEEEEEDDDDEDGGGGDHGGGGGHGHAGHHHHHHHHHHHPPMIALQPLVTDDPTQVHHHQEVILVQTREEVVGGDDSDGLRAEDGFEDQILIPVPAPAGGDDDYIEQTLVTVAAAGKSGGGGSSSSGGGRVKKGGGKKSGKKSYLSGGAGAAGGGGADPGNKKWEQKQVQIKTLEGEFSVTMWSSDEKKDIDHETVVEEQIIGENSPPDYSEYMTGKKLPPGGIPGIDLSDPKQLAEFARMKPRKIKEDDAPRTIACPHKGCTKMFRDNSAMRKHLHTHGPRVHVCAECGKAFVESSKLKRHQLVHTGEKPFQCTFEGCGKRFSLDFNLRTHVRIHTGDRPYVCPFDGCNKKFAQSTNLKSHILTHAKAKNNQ

B1: GST-EZH2 (465–519) (domain or fragment)
chain: not shown
notes: Vector pGEX-4T-1; source: E. coli; held on Glutathione-Sepharose beads from bacterial lysate
As for B1, the binding result is recorded as “binds”.

B2: GST-EZH2 (465–545) (domain or fragment)
chain: not shown
notes: Vector pGEX-4T-1; source: E. coli; held on Glutathione-Sepharose beads from bacterial lysate (pull-down); purified (SPR)
B2: the binding result was “binds”.

B3: GST-EZH2 (385–618) (domain or fragment)
chain: not shown
notes: as for B2
Regarding B3, the binding result is reported as “binds”.
